In paper PMC6677831, “X-ray Crystallographic Structure and Oligomerization of Gloeobacter Rhodopsin” (Scientific Reports, 2019):
Residue numbers refer to the chain shown, from its start. Names and notes keep the numbering of the source.

Columns and labels:
[1] = target: T1, Gloeobacter rhodopsin (GR) (Gloeobacter violaceus, UniProt Q7NP59); experiment: X-ray crystal structure, […] A; assay type: binding; settings: covalent, protonated Schiff base at Lys257; dark state; bicelle crystals, pH 3.4, 100 K
T1 construct: gene gll0198; wild type, C-terminal 6xHis tag, expressed in E. coli C43(DE3) with added retinal; 33 kDa; monomer at pH 3.0, pentamer at pH 8.0 in DDM

[2] = target: Mastigocladopsis repens halorhodopsin (Mastigocladopsis repens); experiment: not stated; unpublished observation of the authors
[3] = target: the molecule itself; experiment: SEC; Superdex 200 10/300 GL; 20 mM Tris-HCl pH 8.0, 300 mM NaCl, 0.04% DDM
[4] = target: the molecule itself; experiment: DEER spectroscopy; Q-band, 80 K, 20% deuterated glycerol, GR-67R1 in detergent micelles at pH 8.0; distances between spin labels of protomers

Molecule: CC1=C(/C=C/C(C)=C/C=C/C(C)=C/C=O)C(C)(C)CCC1 [all-trans-retinal]
- X-ray crystal structure, 2.0 A [1]: the all-trans-retinal chromophore is covalently bound to the opsin protein moiety via a Schiff base

Molecule: Mastigocladopsis repens halorhodopsin (natural protein)
- stoichiometry N [2]: 3

B1: Gloeobacter rhodopsin (natural protein, Gloeobacter violaceus PCC 7421)
chain: MLMTVFSSAPELALLGSTFAQVDPSNLSVSDSLTYGQFNLVYNAFSFAIAAMFASALFFFSAQALVGQRYRLALLVSAIVVSIAGYHYFRIFNSWDAAYVLENGVYSLTSEKFNDAYRYVDWLLTVPLLLVETVAVLTLPAKEARPLLIKLTVASVLMIATGYPGEISDDITTRIIWGTVSTIPFAYILYVLWVELSRSLVRQPAAVQTLVRNMRWLLLLSWGVYPIAYLLPMLGVSGTSAAVGVQVGYTIADVLAKPVFGLLVFAIALVKTKADQESSEPHAAIGAAANKSGGSLIS
modifications: all-trans-retinal covalently bound to Lys257 via a protonated Schiff base
notes: Gloeobacter rhodopsin (GR), light-driven proton pump of Gloeobacter violaceus PCC 7421; 33 kDa; Membrane protein in detergent micelles (0.04% DDM) in the oligomerisation experiments; also called GR; wild-type GR; source: E. coli C43(DE3), purified (TALON Co2+ column, Superdex 200) in OG or DDM
- binding result [3]: binds

B2: spin-labeled GR-67R1 (natural protein, Gloeobacter violaceus PCC 7421)
chain: B1 chain with G67C
modifications: R1 nitroxide side chain at Cys67; all-trans-retinal bound to Lys257 via a Schiff base
notes: Gloeobacter rhodopsin (GR) of Gloeobacter violaceus PCC 7421 with G67C, spin-labeled at 67; also called spin labeled G67C mutant of GR
- stoichiometry N [4]: 5
